Here are results for one substance from paper PMC11869483.

In this experiment the target is PcaLOOL12 (loosenin from Phanerochaete carnosa) produced in Pichia pastoris with a C-terminal His6-tag (Phanerochaete carnosa). The experiment can be described thus: SEC-SAXS. (In general: SEC sorts molecules by how far they enter the pores of the column.)

In general, stoichiometry N refers to a count of units in the complex or per binding partner. “PcaLOOL12 (loosenin from Phanerochaete carnosa) produced in Pichia pastoris with a C-terminal His6-tag (natural protein)” gave a stoichiometry N of 2.
